In patent publication US20050074840A1 one finds Kd data, which are given here for three substances.

This experiment deals with human TNF-alpha (hTNF-alpha) (human) (UniProt P01375). Briefly: saturation binding of [125I]TNF-alpha on yeast.
One may read the Kd as the equilibrium constant for the complex coming apart. Lower therefore signals tighter binding. For “mutant clone 6 TNFrED-agglutinin fusion (H34P + S57I) displayed on yeast (from UniProt P20840 330-650)”, the Kd amounted to 1.71 nM.

As to “mutant clone 11 TNFrED-agglutinin fusion (S87P) displayed on yeast (from UniProt P20840 330-650)”, the Kd was determined as 1.31 nM.

“wild-type TNFrED-agglutinin fusion displayed on the surface of S. cerevisiae BJ2168 (from UniProt P20840 330-650)” registered a dissociation constant Kd of 2.04 nM.
